Assay results taken from PMC10445657.

T1: RORα S100D (human, UniProt P35398 1-523, S100D)
T1 sequence: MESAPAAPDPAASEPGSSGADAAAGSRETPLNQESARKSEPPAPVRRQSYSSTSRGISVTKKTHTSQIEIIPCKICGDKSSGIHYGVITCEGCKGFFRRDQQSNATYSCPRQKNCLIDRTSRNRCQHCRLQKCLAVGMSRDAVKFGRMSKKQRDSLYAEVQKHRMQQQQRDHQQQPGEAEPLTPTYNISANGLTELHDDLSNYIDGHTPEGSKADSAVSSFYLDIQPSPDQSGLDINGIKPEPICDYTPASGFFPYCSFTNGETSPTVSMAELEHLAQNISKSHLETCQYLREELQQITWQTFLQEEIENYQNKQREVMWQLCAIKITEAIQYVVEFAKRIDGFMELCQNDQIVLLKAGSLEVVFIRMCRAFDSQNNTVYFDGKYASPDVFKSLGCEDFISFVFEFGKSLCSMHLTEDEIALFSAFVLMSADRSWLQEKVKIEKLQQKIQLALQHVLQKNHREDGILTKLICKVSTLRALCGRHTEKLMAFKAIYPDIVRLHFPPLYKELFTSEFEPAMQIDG

B1: RORE probe (dsDNA)
DNA 1: GATCTCGACTCGTATATCAAGGTCATGCTG
DNA 2: CAGCATGACCTTGATATACGAGTCGAGATC
B2: HRE probe (dsDNA)
DNA 1: GATCTCGACAGTGACCCTTTTAACCAGGTCAGTGAG
DNA 2: CTCACTGACCTGGTTAAAAGGGTCACTGTCGAGATC

Target: T1, RORα S100D
Test: EMSA

| Binder | binding result |
| --- | --- |
| B1 | no binding |
| B2 | no binding |
